Data: PMC10617019 (Nature cell biology, 2023)
Where no end group is shown, it is not given here. [ ]: non-standard residue; d: D form. Hyp = O=C(O)[C@@H]1C[C@@H](O)CN1

Biological target: pVHL in complex with elongin C and elongin B (VCB) (human, UniProt P40337 55-213; Q15370 1-118)
Assay: fluorescence polarisation

Binder: TLYYMA[Hyp]EHLNDVNA (also: FITC label, position not given here) [Fluorescein isothiocyanate-labelled RIPK1 peptide T189LYYMA(Hyp)EHLNDVNA203]
- Kd: 5.9 µM
